We go through one molecule from PMC6093203 (Journal of the American Chemical Society, 2018).

The term Kd denotes the equilibrium constant for the complex coming apart. A higher Kd goes with weaker binding.

The target in the assay is non-phosphorylated PTEN (n-PTEN). The experiment in a line: fluorescence polarisation. On the technique in general: In fluorescence polarisation assays a small probe gives low polarisation when free and higher when bound to something large.

B1: F-HECT-WWP2 (domain or fragment)
chain: KPYDLRRRLYIIMRGEEGLDYGGIAREWFFLLSHEVLNPMYCLFEYAGKNNYCLQINPASSINPDHLTYFRFIGRFIAMALYHGKFIDTGFTLPFYKRMLNKRPTLKDLESIDPEFYNSIVWIKENNLEECGLELYFIQDMEILGKVTTHELKEGGESIRVTEENKEEYIMLLTDWRFTRGVEEQTKAFLDGFNEVAPLEWLRYFDEKELELMLCGMQEIDMSDWQKSTIYRHYTKNSKQIQWFWQVVKEMDNEKRIRLLQFVTGTCRLPVGGFAELIGSNGPQKFCIDKVGKETWLPRSHTCFNRLDLPPYKSYEQLREKLLYAIEETEGFGQE
modifications: fluorescein on the N-terminal Cys
B1 yielded a dissociation constant (Kd) of 120 µM.
